Data taken from publication PMC4118829.

Assays:
[1] = target: N-terminal domain of the ectodomain of Hepatitis C virus envelope glycoprotein E1, N43Q (Hepatitis C virus); assay: SEC; size-exclusion chromatography; data not shown
[2] = target: N-terminal domain of the ectodomain of Hepatitis C virus envelope glycoprotein E1, N43Q (Hepatitis C virus); assay: reducing and nonreducing SDS-PAGE; 15% reducing (R) and nonreducing (NR) SDS-PAGE gels of purified deglycosylated HCV nE1; covalent dimer

Work on “N-terminal domain of the ectodomain of Hepatitis C virus envelope glycoprotein E1, N43Q (domain or fragment)” yielded a stoichiometry N [1] of 2 and a stoichiometry N [2] of 2.
